# Laboratory results published in patent publication EP4302836A1 (Danmarks Tekniske Universitet, dated 2024).
# Positions count from the first letter of the chain named.
# B1: TPL0039_05_G08 IgG (antibody, V domains shown)
# VH: EVQLVESGGGVVQPGRSLRLSCAASGFTFSSYGMHWVRQAPGKGLEWVAVISYDGSNKYYADSVKGRFTISRDNSKNTLYLQMNSLRAEDTAVYYCARTNYDSGDAFDIWGQGTLVTVSS
# VL: NFMLTQPHSVSESPGKTVTISCTRSSGSIASNYVQWYQQRPGSSPTTVIYEDNQRPSGVPDRFSGSIDSSSNSASLTISGLKTEDEADYYCQSYDSSTVVFGGGTKLTVLG
# B2: TPL0039_05_B04 IgG (antibody, V domains shown)
# VH: EVQLLESGGGVVQPGRSLRLSCAASGFTFSSYGMHWVRQAPGKGLEWVAVISYDGSNKYYADSVKGRFTISRDNSKNTLYLQMNSLRAEDTAVYYCARVGENEAFDIWGQGTMVTVSS
# VL: B1 VL with S31R, S44A
# B3: TPL0039_05_F04 scFv (scFv, V domains shown)
# VH: QVQLVESGGGVVQPGRSPRLSCAASGFTFSSYGMHWVRQAPGKGLEWVAVISYDGSNKYYADSVKGRFTISRDNSKNTLYLQMNSLRAEDTAVYYCAKDLEYSSSSWGQGTLVTVSS
# VL: B1 VL with Y37F, N53D, D88T, Y90F, L107V
# B4: TPL0039_05_A03 IgG (antibody, V domains shown)
# VH: QVQLVESGGGLAKPGRSLRLSCAVSGFTFSSYGMHWVRQAPGKGLEWVAVISYDGSNKYYADSVKGRFTISRDNSKNTLYLQMNSLRAEDTAVYYCASTLQQLDAFDIWGQGTMVTVSS
# VL: B1 VL with V18I, S44V, T47P, N53D, Q54R, T98S, L107I
# B5: TPL0039_05_F04 IgG (antibody, V domains shown)
# VH: B3 VH
# VL: B1 VL with Y37F, N53D, D88T, Y90F, L107V
# B6: TPL0039_05_B12 IgG (antibody, V domains shown)
# VH: B2 VH with L5V, R98G, V99W, G100T, N102G, E103D, M113L
# VL: B1 VL with S44A, T46S, Q54R, S70A, T98S, L107I
# Assays:
# [1] = molecular target: T1, Myotoxin II from Bothrops asper (Basic phospholipase A2 homolog 2, Uniprot P24605) (Bothrops asper, UniProt P24605 17-137); assay: cell-based or functional assay
# [2] = molecular target: T1, Myotoxin II from Bothrops asper (Basic …); assay: expression-normalized capture (ENC) assay, antigen at 10 nM (data not shown)
# [3] = molecular target: T1, Myotoxin II from Bothrops asper (Basic …); assay: monoclonal IgG ELISA, dilution series (Fig. 2A legend)
# T1 sequence (P24605 17-137, one chain of several): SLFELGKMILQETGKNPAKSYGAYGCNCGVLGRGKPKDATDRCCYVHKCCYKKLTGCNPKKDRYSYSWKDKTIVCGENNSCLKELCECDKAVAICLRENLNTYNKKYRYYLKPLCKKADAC
Binder,"fibroblast viability assay (CellTiter-Glo), toxin:IgG ratio for full neutralization [1]",other results
B1,1 mol IgG per mol toxin (printed as toxin:IgG 1:1),–
B2,0.5 mol IgG per mol toxin (printed as toxin:IgG 1:0.5),–
B3,–,binding result [2]: binds
B4,0.5 mol IgG per mol toxin (printed as toxin:IgG 1:0.5),–
B5,–,binding result [3]: binds
B6,0.5 mol IgG per mol toxin (printed as toxin:IgG 1:0.5),–
